Reference: patent US20110318357A1

Biological target: Shiga toxin type 2 (Stx2) (Escherichia coli) (UniProt P09385)
Test: cell-based or functional assay

**Q.** With monoclonal antibody 11E10 as the substance, how does the percent neutralization of cytotoxicity for Vero cells read?
**A.** 65%
